Measured values as given in PMC4894640, “RAB-10 Promotes EHBP-1 Bridging of Filamentous Actin and Tubular Recycling Endosomes” (PLoS Genetics, 2016).

Molecular target: F-actin (polymerized non-muscle actin) (UniProt P60709 1-375)
Test: co-sedimentation; GST fusion protein incubated with 40 ul freshly polymerized non-muscle actin (21 uM F-actin) or F-actin buffer alone, 30 min at room temperature, 150,000 x g 1.5 h at 24 C; supernatant and pellet on SDS-PAGE, coomassie or western blot, densitometry
Settings: both partners purified

B1: GST-EHBP-1(260-510aa) (domain or fragment, C. elegans, UniProt G5ECW3 260-510, looked up)
chain: APAPIATNRHSRSSRASTEEKASTTIEFRVDSNSRHVPVTAIATPYYLQSGTMSRGRSNSPRAPSRDAVPQPIDGETLLSWCQRVTNGYSHVKVNDFMKSWNNGLALCAVLHSYRPDLIGDYETLDISNNMSGRISNIQRALDSLTLIGITEVPTVDMFLTPDRKQIEFLLQHLRRIFEGFDEGSTPASASDHRISRTFGINESEEKVVAMITEIRNQKDLEEAVDYRHIPDEVPVTPQLASRNPALNQPT
notes: C. elegans EHBP-1, central calponin homology (CH) domain, residues 260-510; Cloned into pGEX-2T modified with a Gateway cassette; also called GST-CH; GST-EHBP-1-CH (aa260-510); source: E. coli ArcticExpress, purified (glutathione-Sepharose 4B, eluted with glutathione); held on glutathione beads for the pull-down
P/S ratio (pellet/supernatant) with actin filaments: ~80%
